The record followed here is article PMC4989220.

For assay [1], the target named is Rab6a GTPase (rat hepatocytes) (rat (endogenous in primary hepatocytes)) (UniProt Q9WVB1). In words: proximity ligation; Duolink in situ PLA in control VA-13 cells and hepatocytes from control rats; mouse anti-giantin + rabbit anti-Rab6a, or mouse anti-Rab6a + rabbit anti-NMIIA-P-S1943; cells with more than one red spot counted.
Assay [2] deals with Rab6a GTPase (human (endogenous in VA-13, HepG2-derived)) (UniProt P20340). The description is as above.
Sequence of Rab6a GTPase (human (endogenous in VA-13, HepG2-derived)) (P20340 whole entry): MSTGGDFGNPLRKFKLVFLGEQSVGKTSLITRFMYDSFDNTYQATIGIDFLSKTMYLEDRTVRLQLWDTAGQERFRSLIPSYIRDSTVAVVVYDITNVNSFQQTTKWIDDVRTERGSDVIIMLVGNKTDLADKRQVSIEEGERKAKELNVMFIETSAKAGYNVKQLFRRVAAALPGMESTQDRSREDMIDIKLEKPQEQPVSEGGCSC
Assay [3] concerns the target Rab6a GTPase (rat hepatocytes) (rat (endogenous in primary hepatocytes)) (UniProt Q9WVB1). In words: proximity ligation; Duolink in situ PLA in VA-13 cells treated with 35 mM EtOH for 72 h and hepatocytes from EtOH-fed rats; mouse anti-Rab6a + rabbit anti-NMIIA-P-S1943; cells with more than one red spot counted.

Sequence of Rab6a GTPase (rat hepatocytes) (rat (endogenous in primary hepatocytes)) (Q9WVB1 whole entry): as the sequence (P20340 whole entry) above, with T3A, S202N counted along it
Sequence of non-muscle Myosin IIA heavy chain phosphorylated at S1943 (rat hepatocytes) (Q62812 2-1961): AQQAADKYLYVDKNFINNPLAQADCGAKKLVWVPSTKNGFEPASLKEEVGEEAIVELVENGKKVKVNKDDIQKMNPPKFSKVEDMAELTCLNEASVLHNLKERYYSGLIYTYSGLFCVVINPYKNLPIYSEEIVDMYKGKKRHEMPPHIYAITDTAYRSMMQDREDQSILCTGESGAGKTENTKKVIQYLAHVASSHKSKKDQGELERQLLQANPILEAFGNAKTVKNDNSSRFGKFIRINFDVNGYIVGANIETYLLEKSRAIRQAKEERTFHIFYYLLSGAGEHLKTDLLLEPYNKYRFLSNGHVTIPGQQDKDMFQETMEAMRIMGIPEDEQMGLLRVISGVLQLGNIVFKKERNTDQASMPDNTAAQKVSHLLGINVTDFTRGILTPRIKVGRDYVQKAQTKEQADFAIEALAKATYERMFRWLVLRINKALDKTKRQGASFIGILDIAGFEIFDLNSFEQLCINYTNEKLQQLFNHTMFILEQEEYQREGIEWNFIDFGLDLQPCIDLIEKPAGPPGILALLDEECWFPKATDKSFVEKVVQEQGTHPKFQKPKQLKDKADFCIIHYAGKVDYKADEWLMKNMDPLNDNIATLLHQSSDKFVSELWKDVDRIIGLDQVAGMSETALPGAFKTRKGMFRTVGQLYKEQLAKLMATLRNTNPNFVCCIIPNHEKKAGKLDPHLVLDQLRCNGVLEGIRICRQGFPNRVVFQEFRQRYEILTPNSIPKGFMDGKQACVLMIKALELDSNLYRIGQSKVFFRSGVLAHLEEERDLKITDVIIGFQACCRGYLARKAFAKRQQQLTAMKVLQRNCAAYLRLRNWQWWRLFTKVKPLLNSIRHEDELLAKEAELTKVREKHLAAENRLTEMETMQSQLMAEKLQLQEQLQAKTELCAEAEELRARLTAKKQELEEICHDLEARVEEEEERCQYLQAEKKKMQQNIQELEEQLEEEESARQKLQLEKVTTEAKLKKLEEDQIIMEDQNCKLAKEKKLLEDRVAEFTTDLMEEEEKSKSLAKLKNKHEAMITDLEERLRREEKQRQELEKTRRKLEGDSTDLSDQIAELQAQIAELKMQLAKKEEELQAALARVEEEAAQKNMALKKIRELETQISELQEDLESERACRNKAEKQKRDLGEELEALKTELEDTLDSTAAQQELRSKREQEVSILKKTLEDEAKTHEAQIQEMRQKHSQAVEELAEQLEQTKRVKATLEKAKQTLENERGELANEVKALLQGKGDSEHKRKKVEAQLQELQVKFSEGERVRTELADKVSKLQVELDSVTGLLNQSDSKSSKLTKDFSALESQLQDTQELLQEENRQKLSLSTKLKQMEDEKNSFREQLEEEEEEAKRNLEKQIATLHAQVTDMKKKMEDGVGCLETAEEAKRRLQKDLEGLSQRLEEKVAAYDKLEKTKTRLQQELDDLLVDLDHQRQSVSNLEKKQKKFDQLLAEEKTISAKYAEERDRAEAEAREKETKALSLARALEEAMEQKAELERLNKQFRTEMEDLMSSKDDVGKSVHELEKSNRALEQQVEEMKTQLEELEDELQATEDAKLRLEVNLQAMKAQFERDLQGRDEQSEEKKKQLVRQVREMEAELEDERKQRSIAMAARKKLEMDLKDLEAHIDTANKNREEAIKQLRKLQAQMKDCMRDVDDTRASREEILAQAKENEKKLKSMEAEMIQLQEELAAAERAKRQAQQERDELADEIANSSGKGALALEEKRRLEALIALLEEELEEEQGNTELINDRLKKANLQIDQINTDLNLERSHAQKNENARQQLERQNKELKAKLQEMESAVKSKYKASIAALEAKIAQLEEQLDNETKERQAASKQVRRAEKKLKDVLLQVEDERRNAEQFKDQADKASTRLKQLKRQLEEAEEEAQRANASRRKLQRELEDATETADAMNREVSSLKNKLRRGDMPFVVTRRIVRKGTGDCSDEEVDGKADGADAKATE

As for “giantin (rat hepatocytes) (natural protein)”, in assay [1], the percent of cells with more than one PLA spot came to 83%.
With giantin, Q14789 1-3259, in assay [2], the percent of cells with more than one PLA spot was 78%.
For “non-muscle Myosin IIA heavy chain phosphorylated at S1943 (rat hepatocytes) (from UniProt Q62812 1-1961) (natural protein)”, the percent of cells with PLA-positive puncta in assay [3] is 86%.
